Results as given in IntAct's records for PubMed 29039417.

B1: BBSome-interacting protein 1 (Homo sapiens), A8MTZ0 (parent)
chain: MLKAAAKRPELSGKNTISNNSDMAEVKSMFREVLPKQGPLFVEDIMTMVLCKPKLLPLKSLTLEKLEKMHQAAQNTIRQQEMAEKDQRQITH
partner: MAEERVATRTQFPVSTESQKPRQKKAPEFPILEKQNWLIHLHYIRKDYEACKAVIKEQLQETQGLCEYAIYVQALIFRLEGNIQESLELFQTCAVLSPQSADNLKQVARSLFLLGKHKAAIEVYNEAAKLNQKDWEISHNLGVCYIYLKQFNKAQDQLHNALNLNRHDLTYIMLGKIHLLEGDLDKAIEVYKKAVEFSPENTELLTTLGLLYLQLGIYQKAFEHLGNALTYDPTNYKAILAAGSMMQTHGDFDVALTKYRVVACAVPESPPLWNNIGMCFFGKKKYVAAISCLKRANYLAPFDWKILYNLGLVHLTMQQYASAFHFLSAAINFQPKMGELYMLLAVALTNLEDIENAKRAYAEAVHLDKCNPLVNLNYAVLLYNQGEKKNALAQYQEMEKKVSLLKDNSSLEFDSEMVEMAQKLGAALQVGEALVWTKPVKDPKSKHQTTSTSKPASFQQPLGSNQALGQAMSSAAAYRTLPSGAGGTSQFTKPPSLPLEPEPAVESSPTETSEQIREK

Variants of: B1
Conditions: with bbs4_human BBS4, Q96RK4

| Variant | effect of a mutation on the interaction |
| --- | --- |
| V49E | with no effect |
| V49A | with no effect |
| V49K | with no effect |
| G38K | with no effect |
| G38E | with no effect |
| G38A | with no effect |
| K52A | with no effect |
| K52Y | disrupting interaction strength |
| K52E | with no effect |
| K52I | disrupting interaction strength |
| D44A | with no effect |
| D44K | with no effect |
| D44E | with no effect |
| L50E | with no effect |
| L50K | with no effect |
| L50A | with no effect |
| M46K | with no effect |
| M46E | with no effect |
| M46A | with no effect |
| M46F | disrupting interaction strength |
| T62A | with no effect |
| T62E | with no effect |
| T62K | with no effect |

| Variant | effect of a mutation on the interaction |
| --- | --- |
| T62S | disrupting interaction strength |
| L56F | disrupting interaction strength |
| L56E | with no effect |
| L56A | with no effect |
| L56K | with no effect |
| L55A | with no effect |
| L55E | with no effect |
| L55K | with no effect |
| T47R | disrupting interaction strength |
| T47A | with no effect |
| T47E | with no effect |
| T47K | with no effect |
| L58K | with no effect |
| L58E | with no effect |
| L58A | with no effect |
| M48E | with no effect |
| M48A | with no effect |
| M48K | with no effect |
| S60A | with no effect |
| S60E | with no effect |
| S60K | with no effect |
| P39K | with no effect |
| P39A | with no effect |

| Variant | effect of a mutation on the interaction |
| --- | --- |
| P39E | with no effect |
| V42K | with no effect |
| V42E | with no effect |
| V42A | with no effect |
| K59A | with no effect |
| K59E | with no effect |
| E43K | with no effect |
| E43A | with no effect |
| E64A | with no effect |
| E64K | with no effect |
| L61K | with no effect |
| L61A | with no effect |
| L61E | with no effect |
| P57A | with no effect |
| P57K | with no effect |
| P57R | disrupting interaction strength |
| P57E | with no effect |
| P53K | with no effect |
| P53A | with no effect |
| P53E | with no effect |
| I45E | with no effect |
| I45K | with no effect |
| I45A | with no effect |

| Variant | effect of a mutation on the interaction |
| --- | --- |
| K65A | with no effect |
| C51A | with no effect |
| C51K | with no effect |
| C51S | disrupting interaction strength |
| C51E | with no effect |
| K54E | with no effect |
| K54Y | disrupting interaction strength |
| K54A | with no effect |
| K54T | disrupting interaction strength |
| Q37E | with no effect |
| Q37K | with no effect |
| L63A | with no effect |
| L63K | with no effect |
| L63E | with no effect |
| L40A | with no effect |
| L40E | with no effect |
| L40K | with no effect |
| F41A | with no effect |
| F41E | with no effect |
| F41K | with no effect |
